Reference: patent publication US20200231681A1 (CHONG KUN DANG PHARMACEUTICAL, published 2020)

Columns and labels:
[1] = biological target: T1, cynomolgus monkey c-Met ECD (SiNo. Biological, 90304-CO8H) (cynomolgus monkey, UniProt A0A2K5UM36 25-932); experiment: SPR (BIAcore), antibody captured by anti-human IgG Fc, antigen as analyte, 1:1 Langmuir
T1 construct: not shown: The vendor's tag
Procedure: (§1) The antibodies were diluted in HBS-EP buffer (0.01 M HEPES pH 7.4, 0.15 M NaCl, 3 mM EDTA and 0.005% (v/v) Surfactant P20) at a concentration of 1-2 μg/ml, after which the resulting antibodies were injected into a CM5 chip with an anti-human Ig Fc fixed thereto at a flow rate of 30 μl/min for 10-120 seconds, and then captured in a range of 150-200 RU. Each antigen was used after being diluted at 10, 5, 2.5, 1.25, 0.625, 0.3125 and 0.15625 nM, after which the resulting antigens were sequentially injected from a lower concentration. Then, the resulting antigens were injected at a flow rate of 30 μl/min for 5 minutes to carry out binding, after which a running buffer was injected thereinto for 10-15 minutes to carry out a dissociation. 15 μl of 10 mM Glycine-HCl (pH 1.5) was used to revive the chip.

[2] = biological target: T2, human c-Met ECD (ACROBiosystems, MET-H5227) (human, UniProt P08581 25-932); experiment: as above
T2 construct: extracellular domain; Bought protein
Procedure: as §1

[3] = biological target: T3, human MSP R/Ron (R&D systems, 1947-MS-050) (human, UniProt Q04912 25-571, limits assumed); experiment: indirect ELISA, hu8C4 at 0.240 nM
Procedure: (§2) Each antigen was diluted in 0.05 M carbonate-bicarbonate (Sigma, C3041) buffer at a concentration of 1 μg/ml, after which the resulting antigen was added into each well of a 96-well plate (Corning, #2592), such that the resulting plate was coated at 4° C. overnight. The plate was washed once with TBS-T, after which TBS-T containing 4%—skim milk was added by 200 μl into each well of the resulting plate in order to inhibit a non-specific binding, such that the resulting plate was reacted at 37° C. for 1 hour. Then, the plate was washed once with TBS-T buffer, after which a primary antibody was sequentially diluted in TBS-T buffer containing 2%—skim milk from a highest concentration of 30 nM to 0.002 nM, such that the resulting antibody was added by 100 μk into each well, thus being reacted at 37° C. for 2 hours. After being washed three times with TBS-T buffer, an anti-human kappa light chains-peroxidase (Sigma, A7164) was diluted at a ratio of 1:5000 as a secondary antibody, after which the resulting antibody was added by 100 μl into each well, thus being reacted at 37° C. for 1 hour. Then, after being washed three times with TBS-T buffer, TMB solution (Sigma, T4444) was added by 100 μl into each well to carry out an color developing reaction, after which 2 N […] solution was added by 50 μl into each well to stop the reaction. An optical density was measured based on a value at a wavelength of 450 nm by using a microplate reader and a reference wavelength of 570 nm was used.

[4] = biological target: T4, human IGF-I R (R&D systems, 391-GR-050) (human, UniProt P08069 31-932); experiment: indirect ELISA, hu8C4 at 0.240 nM
Procedure: as §2

[5] = biological target: T5, human VEGF R2 Fc chimera (R&D systems, 357-KD_CF) (human, UniProt P35968 20-764); experiment: indirect ELISA, hu8C4 at 0.240 nM
T5 construct: also called VEGFR R2
Procedure: as §2

[6] = biological target: T6, human PDGF Rβ Fc chimera (R&D systems, 385-PR_CF) (human, UniProt P09619 33-530); experiment: indirect ELISA, hu8C4 at 0.240 nM
Procedure: as §2

[7] = biological target: T3, human MSP R/Ron (R&D systems, …); experiment: indirect ELISA, hu8C4 at 0.002 nM
Procedure: as §2

[8] = biological target: T4, human IGF-I R (R&D systems, 391-GR-050); experiment: indirect ELISA, hu8C4 at 0.002 nM
Procedure: as §2

[9] = biological target: T5, human VEGF R2 Fc chimera (R&D systems, …); experiment: indirect ELISA, hu8C4 at 0.002 nM
Procedure: as §2

[10] = biological target: T7, human c-Met Fc chimera (R&D systems, 358-MT_CF) (human, UniProt P08581 25-932); experiment: indirect ELISA, hu8C4 at 0.002 nM
T7 construct: extracellular domain; also called human c-Met (R&D Systems, 358-MT)
Procedure: as §2

[11] = biological target: T6, human PDGF Rβ Fc chimera (R&D systems, …); experiment: indirect ELISA, hu8C4 at 0.002 nM
Procedure: as §2

[12] = biological target: T3, human MSP R/Ron (R&D systems, …); experiment: indirect ELISA, hu8C4 at 0.010 nM
Procedure: as §2

[13] = biological target: T5, human VEGF R2 Fc chimera (R&D systems, …); experiment: indirect ELISA, hu8C4 at 0.010 nM
Procedure: as §2

[14] = biological target: T8, mouse EGFR (SiNo. Biological Inc, 51091-M08H) (mouse, UniProt Q01279 25-647); experiment: ELISA, coated antigen 2 µg/ml
T8 construct: extracellular domain
Procedure: Particularly, mouse c-Met (SiNo. Biological Inc, 50622-M08H), cynomolgus monkey c-Met (SiNo. Biological Inc, 90304-CO8H), human c-Met (R&D Systems, 358-MT), mouse EGFR (SiNo. Biological Inc, 51091-M08H), cynomolgus monkey EGFR (SiNo. Biological, 90285-008B) and human EGFR (Abcam, 155639) antigens were all divided into a 96-well plate at a concentration of 2 μg/ml, after which the resulting plate was reacted at 4° C. overnight.
Color development was made by using TMB (Sigma, T4444) solution, wherein its value was measured at an optical density of 450 nm and its ELISA results are shown in FIG. 9.

B1: hu8C4 (IgG1 humanized antibody having a hinge region of SEQ ID NO: 38 in hu8C4-1) (antibody, V domains shown)
VH: EVQLVESGGGLVQPGGSLRLSCAASGYTFSDYYINWVRQAPGKGLEWIGEIFPGSGNTHFSARFKGRATLSADKSKNTAYLQMNSLRAEDTAVYYCAGGDYGFLYWGQGTLVTVSS
VL: DIQMTQSPSSLSASVGDRVTITCGASENIYGALNWYQQKPGKAPKLLIYGATNLADGVPSRFSGSGSGRDFTFTISSLQPEDIATYYCQNVLSSPYTFGQGTKVEIK
notes: light chain detected with anti-human kappa; also called anti-c-Met antibody hu8C4; hu8C4 monospecific antibody
Kd [1]: 0.462 nM
koff [1]: 0.000345 s⁻¹
kon [1]: 747000 M⁻¹ s⁻¹
Kd [2]: 0.317 nM
koff [2]: 0.000215 s⁻¹
kon [2]: 677000 M⁻¹ s⁻¹
A450 nm-A570 nm [3]: 0 A450 nm-A570 nm
A450 nm-A570 nm [4]: 0 A450 nm-A570 nm
A450 nm-A570 nm [5]: -0.02 A450 nm-A570 nm
A450 nm-A570 nm [6]: -0.01 A450 nm-A570 nm
A450 nm-A570 nm [7]: 0 A450 nm-A570 nm
A450 nm-A570 nm [8]: 0 A450 nm-A570 nm
A450 nm-A570 nm [9]: -0.01 A450 nm-A570 nm
A450 nm-A570 nm [10]: 0.05 A450 nm-A570 nm
A450 nm-A570 nm [11]: -0.01 A450 nm-A570 nm
A450 nm-A570 nm [12]: 0 A450 nm-A570 nm
A450 nm-A570 nm [13]: -0.01 A450 nm-A570 nm
binding result [14]: no binding
